The results in this text go back to patent US10344295B2, “Methods and compositions for providing resistance to glufosinate” (priority 2014, dated 2019).

The subject of one test is TOP10 E. coli cells. Description: minimum inhibitory concentration experiment: growth of E. coli in liquid media with glufosinate. It counts as cell-based. The procedure: FIG. 1 provides a minimal inhibitory concentration experiment. A polynucleotide encoding SEQ ID NO: 1 was transformed into E. coli cells for protein expression with an N-terminal maltose binding protein. The resulting E. coli clone was analyzed for the ability to grow in the presence of glufosinate.
Predicted ORFs (open reading frames) and protein products from genome sequences of several bacterial isolates were identified. A predicted protein was found with 43.53% identity to the phosphinothricin acetyltransferase (PAT) gene. This gene coding for a new GluR (glufosinate resistance) protein was cloned from that strain and is referred to herein as GluRAP1 and set forth in SEQ ID NO:1 (protein sequence) and 2 (DNA sequence). […] The gene coding for SEQ ID NO: 1 was cloned into the pMAL vector and transformed into TOP10 E. coli cells for protein expression with an N-terminal Maltose Binding Protein. […]
The strain was subsequently grown with success on 100 mM glufosinate-supplemented M63 minimal media; while the gene coding for a new GluR (glufosinate resistance) protein was cloned from that strain and referred to herein as GluRAP and set forth in SEQ ID NO:1 and 2. […] The resulting E. coli clone was analyzed for the ability to grow in the presence of glufosinate. […]

The test system of a further test is E. coli. In words: growth of E. coli expressing MBP fusions under various glufosinate concentrations after IPTG induction (FIG. 3). It counts as cell-based. The note with it: compared with the other genes. The procedure: Genes coding for glufosinate-resistant proteins were cloned as MBP (Maltose Binding Protein) fusions and expressed in E. coli. These E. coli strains were grown. The ability of the strains to tolerate and continue to grow in the presence of glufosinate was measured under various glufosinate concentrations upon induction of gene expression by addition of IPTG into the media in which the strains were growing.

A further test has as its system soy callus. Description: selection of transformed soy callus on medium containing glufosinate. It counts as cell-based, soybean. The conditions noted are these: medium containing 25 uM glufosinate; construct pSV37; GUS stain confirmed. On the procedure: Transgenic plants were selected by incubating callus on medium containing 25 uM glufosinate.
Transgenic plants were selected by incubating callus on medium containing 25 uM glufosinate. […] (FIG. 4) See above for construct pSV37 that carries APG00318 gene.

Take `CP(=O)(O)CCC(N)C(=O)O` (stereo not drawn) [glufosinate]: the “glufosinate concentration tolerated by control E. coli” value with TOP10 E. coli cells (control E. coli, minimum inhibitory concentration experiments) is listed as no more than 1 mM.

B1: SEQ ID NO: 9: glufosinate resistance protein from Serratia sp. strain APG00119, encoded by SEQ ID NO: 10 (protein)
chain: MTTLSAPVLSLLDATPDDMAAVLRIYTQHVLYGAASFEEQPPTLAEMQLRLSKVREAGLPWLVAKSAGVIVGYCYATPYRPRPAYRFTVEDSVYIAEGQQGKGIGRALLSALIARCEQGPWRQMLAIVGDSAANRGSLALHQSLGFTSAGTLKAVGFKLGEWRDTQIMQRALGAGGNRHP
modifications: Serratia sp. strain APG00119
As for B1, the “tolerance level to glufosinate of E. coli cultures carrying the gene” value (shortened to “tolerance level to glufosinate”) in the test on E. coli is on record as “higher tolerance level to glufosinate”.

B2: SEQ ID NO: 7: glufosinate resistance protein from Flavobacterium sp. strain APG00135, encoded by SEQ ID NO: 8 (protein)
chain: MSVILRPATVNDLEKILEIVNHSILHTTANYSYDIQTIEVQTKWFEDKKAKNLPIVVADLDGEVVGFGSYGQFREKIGYQYTVEHSVYVVDNVIGKGIGSKLLTELIRLAKEQGYHVMIGAIDADNAGSITFHEKFGFVATGTIREVGYKFDHWLDLVFMQLILK
modifications: Flavobacterium sp. strain APG00135
Regarding B2, the “tolerance level to glufosinate” value in the test with E. coli is given as “higher tolerance level to glufosinate”.

B3: SEQ ID NO:1: glufosinate resistance protein from Pseudomonas sp. strain APG00318, encoded by SEQ ID NO: 2 (protein)
chain: MSKTTVRIAQVSDAQAIQAIYAPMVESTTISFELEPPSVEEMAMRIESTLLTYPYLVAVRDGQVIGYAYASQHRAREAYRWSVDVTVYISPEAHRSGVGRALYDVLLPTLKKQGFHAAYAGIALPNDGSVGLHEALGFAHIGTYPEVGFKHGAWRDVGYWRIALDSTNPPKLPVLFSEISLF
modifications: Pseudomonas sp. strain APG00318
As for B3, the “concentration of glufosinate at which the E. coli clone was able to grow in liquid media” value in the test with TOP10 E. coli cells (E. coli clone expressing the protein with N-terminal maltose binding protein (pMAL)) was found to be 100 mM. Also, the “glufosinate resistance of transformed soy callus” value with soy callus is given as “Glufosinate resistance was observed”. The “tolerance level to glufosinate” value in the test with E. coli is “higher tolerance level to glufosinate”.
